Source: the RNAGym collection of RNA variant scans (doi:10.1093/molbev/msab373)

B1: Azoarcus group I ribozyme (parent)
chain: GUGCCUUGCGCCGGGAAACCACGCAAGGGAUGGUGUCAAAUUCGGCGAAACCUAAGCGCCCGCCCGGGCGUAUGGCAACGCCGAGCCAAGCUUCGGCGCCUGCGCCGAUGAAGGUGUAGAGACUAGACGGCACCCACCUAAGGCAAACGCUAUGGUGAAGGCAUAGUCCAGGGAGUGGCGAAAGUCACACAAACCGG

Variants of: B1
Assay: reverse-splicing fitness (ratio to wild type); higher = more active; in vitro selection; Mg2+ level not given
Summary of the method: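 An in vitro group I ribozyme library with randomized positions was T7-transcribed and gel-purified. In triplicate, 10 pmol RNA in EPPS pH 7.5 was reacted with 50 pmoles of a 30-nt RNA substrate for 1 h at 37 °C across several added MgCl2 levels (1–48 mM), then stopped with EDTA. Products were reverse transcribed from a substrate-complementary primer, PCR-amplified and sequenced (HiSeq 4000). Fitness is a variant's read proportion after selection over that before, normalised to wild type.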

Point of comparison: A111C A120G A145U C150U U176G, reverse-splicing fitness 0.00526. Against it:
- A111C A120G C169U — higher, 0.17
- A111C A120G C169A — higher, 0.131
- A111C A120G C169G — higher, 0.22
- A111C A120U C150A C169A U176C — lower, 0.00383
- A111C A120U C150A C169A U176G — lower, 0.00239
- A111C A120U C150A C169A U176A — higher, 0.00602
- A111C A120U A145C C150A C169G U176G — lower, 0.0024
- A111C A120U A145C C150A C169G U176C — lower, 0.00302
- A111C A120U A145C C150A C169G U176A — lower, 0.00305
- A111C A120G C150G C169G U176C — lower, 0.00473
- A111C A120G C150G C169G U176G — lower, 0.00457
- A111C A120G C150G C169G U176A — higher, 0.0066
- A111C A120G A145U C150G C169G U176C — higher, 0.00574
- A111C A120G A145U C150G C169G U176G — lower, 0.00412
- A111C A120G A145U C150G C169G U176A — higher, 0.00713
- A111C A120G A145U C150U C169U U176C — higher, 0.0353
- A111C A120G A145U C150U C169U U176A — higher, 0.034
- A111C A120G A145U C150U C169U U176G — higher, 0.00595
- A111C A120U A145U C150G C169A U176G — lower, 0.00296
- A111C A120U A145U C150G C169A U176C — lower, 0.0035
- A111C A120U A145U C150G C169A U176A — lower, 0.00343
- A111C A120G C150A U176C — higher, 0.0209
- A111C A120G C150A U176A — higher, 0.0175
- A111C A120G C150A U176G — higher, 0.00592
- A111C A120G A145U C150A C169G U176C — higher, 0.0176
- A111C A120G A145U C150A C169G U176G — lower, 0.00467
- A111C A120U A145G C169A — lower, 0.00474
- A111C A120U A145G C169U — higher, 0.0781
- A111C A120U A145G C169G — higher, 0.0583
- A111C A120G A145U C150U C169A U176G — lower, 0.00499
- A111C A120G A145U C150U C169A U176C — higher, 0.0175
- A111C A120G A145U C150U C169A U176A — higher, 0.0161
- A111C A120G C169A U176G — lower, 0.00418
- A111C A120G C169A U176A — higher, 0.0221
- A111C A120G C169A U176C — higher, 0.0306
- A111C A120G A145U C169G U176A — higher, 0.0277
- A111C A120G A145U C169G U176G — lower, 0.00448
- A111C A120G A145U C169G U176C — higher, 0.0343
- A111C A120U A145C C150A C169A — lower, 0.00208
- A111C A120U A145C C150A C169U — higher, 0.00533
- A111C A120U A145C C150A C169G — lower, 0.0044
- A111C A120G C150A C169G — higher, 0.0242
- A111C A120G C150A C169U — higher, 0.0203
- A111C A120G C150A C169A — higher, 0.0171
- A111C A120U A145U C150G C169G U176G — lower, 0.00233
- A111C A120U A145U C150G C169G U176C — lower, 0.00291
- A111C A120U A145U C150G C169G U176A — lower, 0.00267
- A111C A120G C150U C169G U176G — higher, 0.00581
- A111C A120G C150U C169G U176C — higher, 0.0349
- A111C A120G C150U C169G U176A — higher, 0.0233
- A111C A120U A145C C150A U176G — higher, 0.00735
- A111C A120U A145C C150A U176C — higher, 0.0101
- A111C A120U A145C C150A U176A — higher, 0.016
- A111C A120U A145U C150A U176C — higher, 0.0354
- A111C A120U A145U C150A U176A — higher, 0.0343
- A111C A120U A145U C150A U176G — higher, 0.0123
- A111C A120U A145G C150G C169U — higher, 0.0135
- A111C A120U A145G C150G C169A — higher, 0.00873
- A111C A120U A145G C150G C169G — higher, 0.0117
- A111C A120G C150U — higher, 0.0912
- A111C A120G C150G — higher, 0.0159
- A111C A120G C150A — higher, 0.0211
- A111C A120G C169G U176C — higher, 0.0444
- A111C A120G C169G U176A — higher, 0.0304
- A111C A120G C169G U176G — lower, 0.00449
- A111C A120G A145U C150G C169U U176G — lower, 0.00442
- A111C A120G A145U C150G C169U U176C — higher, 0.0151
- A111C A120G A145U C150G C169U U176A — higher, 0.0111
- A111C A120G A145U C150U U176C — higher, 0.0338
- A111C A120G A145U C150U U176A — higher, 0.0265
- A111C A120U A145G C150U C169G U176C — higher, 0.00994
- A111C A120U A145G C150U C169G U176A — higher, 0.0074
- A111C A120U A145G C150U C169G U176G — lower, 0.00262
- A111C A120U A145G C169A U176C — lower, 0.00408
- A111C A120U A145G C169A U176A — lower, 0.00375
- A111C A120U A145G C169A U176G — lower, 0.00216
- A111C A120U A145G C150U — higher, 0.549
- A111C A120U A145G C150A — higher, 0.099
- A111C A120U A145G C150G — higher, 0.0721
- A111C A120U A145U C150G U176C — higher, 0.0313
- A111C A120U A145U C150G U176G — lower, 0.00462
- A111C A120U A145U C150G U176A — higher, 0.0214
